Molecular target: T1, human plasma fibronectin (human, UniProt P02751 32-2296)
T1 construct: Bought (Sigma); used in solution for ligand blots, coated on microtitre wells, or coupled to Sepharose; also called Fn; human Fn
Experiment: ELISA, recombinant protein titrated on immobilized human Fn (100 ng/well), detected with antiserum

T1 sequence (P02751 other isoform, or with tags, fused parts or gaps limits assumed): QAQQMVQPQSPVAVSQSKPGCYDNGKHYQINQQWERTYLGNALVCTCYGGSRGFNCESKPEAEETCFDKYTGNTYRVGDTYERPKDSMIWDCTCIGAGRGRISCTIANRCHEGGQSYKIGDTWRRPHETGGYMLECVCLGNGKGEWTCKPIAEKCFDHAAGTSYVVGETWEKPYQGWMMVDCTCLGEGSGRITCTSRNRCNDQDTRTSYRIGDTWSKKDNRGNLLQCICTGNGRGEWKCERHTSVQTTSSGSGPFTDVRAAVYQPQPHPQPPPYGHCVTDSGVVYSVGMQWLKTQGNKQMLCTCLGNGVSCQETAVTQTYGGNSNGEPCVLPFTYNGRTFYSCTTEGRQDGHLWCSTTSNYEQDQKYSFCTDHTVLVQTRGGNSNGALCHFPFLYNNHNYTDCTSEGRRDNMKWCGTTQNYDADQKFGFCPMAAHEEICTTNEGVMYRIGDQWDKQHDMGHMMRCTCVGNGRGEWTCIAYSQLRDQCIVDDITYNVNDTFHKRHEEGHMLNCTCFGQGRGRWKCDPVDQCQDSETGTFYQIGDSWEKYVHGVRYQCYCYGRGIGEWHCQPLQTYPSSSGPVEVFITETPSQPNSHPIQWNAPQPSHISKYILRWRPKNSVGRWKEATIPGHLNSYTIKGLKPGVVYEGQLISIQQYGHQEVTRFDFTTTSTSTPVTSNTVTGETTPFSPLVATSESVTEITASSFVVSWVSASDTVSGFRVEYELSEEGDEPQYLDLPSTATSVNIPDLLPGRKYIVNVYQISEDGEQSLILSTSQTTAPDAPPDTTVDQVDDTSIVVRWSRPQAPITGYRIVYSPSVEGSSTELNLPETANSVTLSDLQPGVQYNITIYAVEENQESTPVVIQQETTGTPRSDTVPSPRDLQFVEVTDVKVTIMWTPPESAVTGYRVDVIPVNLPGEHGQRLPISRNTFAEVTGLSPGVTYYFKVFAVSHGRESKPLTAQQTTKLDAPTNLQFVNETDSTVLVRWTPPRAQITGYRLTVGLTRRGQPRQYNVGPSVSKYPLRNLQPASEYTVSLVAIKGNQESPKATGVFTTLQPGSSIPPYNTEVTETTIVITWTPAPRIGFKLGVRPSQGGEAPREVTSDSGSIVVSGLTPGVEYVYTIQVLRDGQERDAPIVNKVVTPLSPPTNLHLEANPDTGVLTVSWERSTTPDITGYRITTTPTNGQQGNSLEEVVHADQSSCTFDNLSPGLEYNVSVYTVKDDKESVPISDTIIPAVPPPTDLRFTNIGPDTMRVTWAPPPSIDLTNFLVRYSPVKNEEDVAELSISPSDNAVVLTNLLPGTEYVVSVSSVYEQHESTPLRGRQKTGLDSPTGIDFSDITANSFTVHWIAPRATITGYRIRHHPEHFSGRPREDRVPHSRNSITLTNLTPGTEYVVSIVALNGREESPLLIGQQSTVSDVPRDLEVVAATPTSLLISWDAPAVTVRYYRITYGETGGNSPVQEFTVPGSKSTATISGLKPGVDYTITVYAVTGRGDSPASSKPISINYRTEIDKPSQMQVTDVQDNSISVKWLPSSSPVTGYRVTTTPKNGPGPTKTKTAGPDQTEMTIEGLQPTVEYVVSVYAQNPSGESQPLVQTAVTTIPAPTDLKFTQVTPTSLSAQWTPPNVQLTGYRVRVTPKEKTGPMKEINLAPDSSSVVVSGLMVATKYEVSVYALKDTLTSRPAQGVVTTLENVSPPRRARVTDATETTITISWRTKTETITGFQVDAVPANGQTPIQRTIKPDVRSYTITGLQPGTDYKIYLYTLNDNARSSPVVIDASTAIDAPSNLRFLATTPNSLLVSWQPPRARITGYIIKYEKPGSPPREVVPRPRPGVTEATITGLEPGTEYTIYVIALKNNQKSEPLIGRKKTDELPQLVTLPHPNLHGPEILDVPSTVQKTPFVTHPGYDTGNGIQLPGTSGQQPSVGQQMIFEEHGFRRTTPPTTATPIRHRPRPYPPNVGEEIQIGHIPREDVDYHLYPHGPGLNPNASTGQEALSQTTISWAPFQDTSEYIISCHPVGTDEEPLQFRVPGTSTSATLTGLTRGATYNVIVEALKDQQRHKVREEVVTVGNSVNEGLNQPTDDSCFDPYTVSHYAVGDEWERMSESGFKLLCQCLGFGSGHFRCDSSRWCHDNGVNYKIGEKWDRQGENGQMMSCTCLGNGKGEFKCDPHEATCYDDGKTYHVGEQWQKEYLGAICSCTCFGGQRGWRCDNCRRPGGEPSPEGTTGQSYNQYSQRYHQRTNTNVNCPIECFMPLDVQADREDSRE

B1: recombinant NPDH (His10-NPDH-B), amino acids 1-244 of Mycoplasma pneumoniae pyruvate dehydrogenase E1 beta subunit (other)
chain: MSKTIQANNIEALGNAMDLALERDPNVVLYGQDAGFEGGVFRATKGLQKKYGEERVWDCPIAEAAMAGIGVGAAIGGLKPIVEIQFSGFSFPAMFQIFTHAARIRNRSRGVYTCPIIVRMPMGGGIKALEHHSETLEAIYGQIAGLKTVMPSNPYDTKGLFLAAVESPDPVVFFEPKKLYRAFRQEIPADYYTVPIGQANLISQGNNLTIVSYGPTMFDLINMVYGGELKDKGIELIDLRTISP
Kd: 0.075 µg/mL

From US20040241689A1 (published 2004)
